# Positions count from the first letter of the chain named.
# B1: I23RB182 (antibody, mouse IgG2a, kappa, V domains shown)
# VH: EVQLQQSGPGLVKPSQSLSLTCSVTGYSITSGYFWNWLRQFPGSKLEWMGFIDNDGSNDYNPSLKNRISITRDTSKNQFFLRLNSVTTEDTATYYCARGRLGFFDSWGPGTTLTVSS
# VL: DIVMTQSPAIMSASLGEKVTMSCRASSSVNYMYWYQQKSDASPKLWIYYTSNLAPGVPARFSGSGSGNSYSLTISSMEGEDAATYYCQQFTNSPWTFGAGTKLELKR
# notes: immunization; mouse IgG2a/kappa
# B2: I23RB61 (antibody, mouse IgG2a, kappa, V domains shown)
# VH: DVQLQESGAELVKPGASVKLSCKSFDYTFTSFDINWMKQRPGQGLEWIGWIFPGSGTTNYNEKFKGKATLTADKSSSTAYMHLTSLTSEDSAVYFCARRLTGTRYFDVWGTGTTLTVSS
# VL: DIQMTQSHKFLSTSVGDRITITCKASQDVITAVAWYQQKSGQSPKLLIYWASTRHTGVPDRFTGSGSGTDYTLTISNVQAEDLALYYCQQHYTTPPTFGAGTKLELKR
# notes: as for B1
# B3: I23RB60 (antibody, mouse IgG2a, kappa, V domains shown)
# VH: DVQLQESGPELVKPGDSVKMSCEASGYTFTDYYIDWVKQSHGKSLEWIGYIYPNNGGISFNQKFEGKATLTVDKSSSTAYMELHSLTSEDSAVYYCAREKLRGRDYWGQGTTLTVSS
# VL: DIVMTQSTSSLSASLGDRVTISCRASQDIRNNLNWYQQKPDGTVKLLIFYSSRLHSGVPSRFSGSGSGTDYSLTISNLEQEDIATYFCQQGHTLPWTFGAGTKLELKR
# notes: as for B1
# B4: I23RB168 (antibody, mouse IgG2a, kappa, V domains shown)
# VH: QIQLVQSGPELVKPGASVKMSCKTSGYTFTDYYINWVKQRPGQGLEWIGWIYPAINNTNYNEKFKGKATLTVDTSSRTAYMQLNSLTSEDSAVYFCAISRKPYFDYWGQGTTLTVSS
# VL: DIQMTQSSSSFSVSLGDRVTITCKASEDLYNRLAWYQQKPGNAPRLLISGATSLGTGVLSRFSGSGSGKDYTLSITSLQTEDVATYYCQQYWSIPWTFGAGTKLELKR
# notes: as for B1
# B5: I23RB173 (antibody, mouse IgG2a, kappa, V domains shown)
# VH: DVQLQESGPGLVKPSQSLSLTCSVTGYSITSGYYWNWIRQFPGNKLEWMGYISYDGGNNYNPSLKNRISITRDTSKNQFFLKLNSVTTEDTATYYCARDAGLLPYYAMDYWGQGTTLTVSS
# VL: DIKMTQSPAIMSASPGEKVTITCSASSSVSYMHWFQQKPGTSPKLWIYSTSNLASGVPARFSGSGSGTSYSLTISRMEAEDAATYYCQQRSSYPLTFGDGTKLEMKR
# notes: as for B1
# B6: I23RB31 (antibody, mouse IgG2a, kappa, V domains shown)
# VH: EFQLQQSGAEMVRPGASVKLSCKASGYTFTGYWMNWVKQRPGQGLEWIGKIDPSDTETHYNQNFKDKATLTVDKSSSTAYMQLNSLTSEDSAVYYCARWGLGRNFAMDYWGQGTTLTVSS
# VL: DIVLTQSPATLSVTPGDRVSLSCRASQSISDHLHWYQQKSHESPRLLIKFASQSISGIPSRFSGSGSGSDFTLSIDSVEPEDVGVYYCQNGHSFPLTFGSGTKLEIKR
# notes: as for B1
# B7: I23RB162 (antibody, mouse IgG2a, kappa, V domains shown)
# VH: EFQLQQSGPELVKPGASVKMSCKASGYTFTNYVMHWVKQKPGQGLEWIGYINPYNDGTKYNEKFKGKATLTSDKSSSTAYMELSSLTSEDSAVYYCARSRTGTRWYFDVWGAGTTVTVSS
# VL: DIVMTQSQKFMSTSVGDRVSVTCKASQNVGTNVAWYQQKPGQSPKALIYSASYRYSGVPDRFTGSGSGTDFTLTISNVQSEDLAEYFCQQYNSYPFTFGSGTKLEIKR
# notes: as for B1
# B8: I23RB169 (antibody, mouse IgG2a, kappa, V domains shown)
# VH: QIQLVQSGPELKKPGETVKISCKASGYTFTTVGMQWVQKMPGKGFKWIGWINTHSGEPKYTDDFKGRFAFSLETSASTAYLQISNLKSEDTATYFCARSSALTGAFAYWGQGTLVTVSS
# VL: DIKMTQSPASLAVSLGQRATISCRASKSVSTSDYSYMHWYQQKPGQPPKLLIYLASNLESGVPARFSGSGSGTDFTLNIHPVEEEDAATYYCQHSRELPRTFGAGTKLELKR
# notes: as for B1
# B9: I23RB165 (antibody, mouse IgG2a, kappa, V domains shown)
# VH: EVQLQQSGAELVRPGASVKLSCTASGFNIKDSLMHWVKQRPEQGLEWIGWIDPEDGKTKYAPKFQDKATITADTSSNTAYLQLSSLTSEDTAIYYCARREVLDYFDYWGQGTTLTVSS
# VL: B8 VL with K3V, D33G, R100L, L110M
# notes: as for B1
# B10: I23RB27 (antibody, mouse IgG2a, kappa, V domains shown)
# VH: QVQLKESGPDLVQPSQTLSLTCTVSGFSLTSYGVHWVRQPPGKGLEWVGTLGWDDKKSYNSALKSRLSISRDTSKSQVFLKLSSLQTEDTAMYYCTKEDVSYAMDFWGQGTTLTVSS
# VL: DIQMTQSPTSLAVSLGQRATISCRASESVEYYGTSLMHWYQQKPGQPPKLLIYAASNVESGVPARFSGSGSGTDFSLNIHPVEEEDIAMYFCQQGKKVPWTFGAGTKLEMKR
# notes: as for B1
# B11: I23RB39 (antibody, mouse IgG2a, kappa, V domains shown)
# VH: EVQLQQSGPELVKPGAPVKISCKASGYTFTNYYIHWVKQRPGQGLEWIGYIYPGNGGTAYNQKFKDKATLTADNPSSTAYMQLSSLTSEDSAVYFCARSRGGSRNYFDYWGQGTTLTVSS
# VL: DIQMTQSHKFMSTSVGDRVSITCKASQDVSTAVAWYQQKPGQSPKLLIYSAFYRYTGVPDRFTGSGSGTDFTFTISSVQAEDLAVYYCQQHYSSPRTFGAGTKLELKR
# notes: as for B1
# B12: I23RB160 (antibody, mouse IgG2a, kappa, V domains shown)
# VH: QVQLKESGPDLVKPSQSLSLTCTVTGYSITSGYNWHWIRQFPGNKLEWMGYIHYSSGTIYNPSLKSRISITRDTSKNQFFLQLNSVTTEDTGTYYCARQLGLKAMDYWGQGTSVTVSS
# VL: B11 VL with Q3V, S30R, Y49H, F52S, A80V, S93T, S94T, R96Y, A100S, L106I
# notes: as for B1
# B13: I23RB156 (antibody, mouse IgG2a, kappa, V domains shown)
# VH: QVQLKESGPGLVAPSQSLSITCTVSGFSLTSYAINWVRQPPGKGLEWLGVIWTGGGTNYNSVFKSRLSISKDNSKSQIFLKMISLQTDDTARYYCARNRDYSNYRWYFDVWGAGTTLTVSS
# VL: B11 VL with Q3V, Q42R, S76G, S94I, R96L
# notes: as for B1
# B14: I23RB166 (antibody, mouse IgG2a, kappa, V domains shown)
# VH: DVQLQESGPGLVKPSQTVSLTCTVTGYSITNGNHWWNWIRQVSGSKLEWIGYIRSSGSTDSNPSLKSRISITRDTSKNQLFLQLNSVTAEDIATYYCARERLRLRWSYFDYWGQGTTLTVSS
# VL: B11 VL with Q3V, D17A, F52S, S94T, A100G, L106I
# notes: as for B1
# B15: I23RB36 (antibody, mouse IgG2a, kappa, V domains shown)
# VH: QIQLVQSGAELVKPGASVKLSCTTSGFNIKDTYIHWMKQRPEQGLEWIGRIDPANGNTIYASKFQGKATLTTDTSSNTAYMLLSSLTSGDTAVYYCTRGTSWFAYWGQGTTVTVSS
# VL: DIVMTQSPKSMSMSVGERVTLSCKASENVGTSVSWFQQKPEQSPKLLIYGASNRYTGVPDRFTGSGSATDFTLTISSVQAEDLADYHCGQSYSYPRTFGGGTKLEIKR
# notes: as for B1
# B16: I23RB188 (antibody, mouse IgG2a, kappa, V domains shown)
# VH: QIQLVQSGPELKKPGETVKISCKASGYTFTNYGMNWVKQAPGKGLKWMGWINTYTGAPTYADDFKGRFAFSLETSASTAYLQINNFKNEDTATYFCARGNGYPYYYGINYWGQGTSVTVSS
# VL: DVQMIQSPSSLSASLGERVSLTCRASQEISGNLSWLQQKPDGTIKRLIYAASTLDSGVPKRFSGSRSGSDYSLTISSLESEDFADYYCLQYASYPWTFGAGTRLEIKR
# notes: as for B1
# B17: I23RB58 (antibody, mouse IgG2a, kappa, V domains shown)
# VH: EVKLVESGGGLVKPGGSLKLSCAASGFSFIIYTMSWVRQTPEKRLEWVAYITSGGGITYYPDSVKGRFTISRDNARNTLYLQMSSLRSEDTAMYYCARHEGDYYDDYYRIGYAMDYWGQGTSVTVSS
# VL: DIVMTQTPASLAVSLGQRATISCRASESVDSYGNSFMHWYQQKPGQPPKLLIYRASNLESGIPARFSGSGSRTDFTLTINPVEADDVATYYCQQSNEDPLTFGAGTKLEMKR
# notes: as for B1
# Molecular target: T1, human IL-23R expressed on the cell surface of stably transfected iLite and HEK cell lines (human, UniProt Q5VWK5 24-629)
# T1 construct: whole, on cells; Same receptor on two transfected cell lines; the cell line is named under assay; also called human IL-23R iLite cells; human IL-23R HEK cells
# T1 sequence (looked up): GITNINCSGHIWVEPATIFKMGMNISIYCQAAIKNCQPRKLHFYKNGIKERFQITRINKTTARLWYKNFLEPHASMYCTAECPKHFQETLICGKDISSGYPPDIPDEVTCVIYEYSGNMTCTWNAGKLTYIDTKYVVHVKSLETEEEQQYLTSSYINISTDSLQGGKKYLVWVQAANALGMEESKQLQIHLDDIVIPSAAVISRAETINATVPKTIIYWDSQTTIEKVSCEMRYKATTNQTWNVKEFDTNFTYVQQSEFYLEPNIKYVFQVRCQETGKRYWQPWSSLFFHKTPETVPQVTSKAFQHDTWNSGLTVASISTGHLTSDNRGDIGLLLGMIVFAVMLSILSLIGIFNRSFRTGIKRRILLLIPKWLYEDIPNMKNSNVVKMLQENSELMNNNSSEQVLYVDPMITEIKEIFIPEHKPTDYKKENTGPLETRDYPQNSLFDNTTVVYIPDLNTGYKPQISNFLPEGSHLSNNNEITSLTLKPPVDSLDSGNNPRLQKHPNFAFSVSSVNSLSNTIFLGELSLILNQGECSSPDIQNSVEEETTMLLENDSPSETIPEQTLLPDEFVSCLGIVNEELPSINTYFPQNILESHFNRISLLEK
# Test: flow cytometry on human IL-23R HEK cells, Expt D (8-point, 96well)
# Summary of the method: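 Serially diluted IL-23R mAbs bound to mixed HEK-IL-23R and parental HEK cells for 30 min at 37 °C, in duplicate. After washes, 647 detection antibody geometric MFI measured on single viable (Sytox Green-negative) cells and fitted to a variable-slope dose-response against log mAb concentration.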
row,Binder,EC50
1,B1,36.4 nM
2,B2,0.6 nM
3,B3,0.6 nM
4,B4,3.4 nM
5,B5,0.4 nM
6,B6,1.7 nM
7,B7,0.1 nM
8,B8,0.7 nM
9,B9,0.6 nM
10,B10,3.5 nM
11,B11,0.3 nM
12,B12,0.4 nM
13,B13,0.4 nM
14,B14,0.3 nM
15,B15,0.4 nM
16,B16,2 nM
17,B17,23.1 nM

# Molecular target: T1, human IL-23R expressed on the cell …
# Test: flow cytometry on human IL-23R HEK cells, Expt E (11-point, 384well)
# Summary of the method: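 Antibody bound to HEK-IL-23R cells 30 min at 37 °C over 11 concentrations; after washes, Sytox Green added and cells run on iQue. Geometric MFI of 647 detection antibody on single viable cells fitted by variable-slope dose–response.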
Binder,EC50,MFI (6.4 nM)
B1,> 50 nM,26200 MFI
B2,> 50 nM,118000 MFI
B3,27.7 nM,93700 MFI
B4,22.1 nM,73000 MFI
B5,7.4 nM,100000 MFI
B6,> 50 nM,78600 MFI
B7,2.8 nM,269000 MFI
B8,15.4 nM,132000 MFI
B9,9.7 nM,116000 MFI
B10,> 50 nM,153000 MFI
B11,3.8 nM,277000 MFI
B12,5.6 nM,185000 MFI
B13,8.9 nM,174000 MFI
B14,11.6 nM,198000 MFI
B15,7.3 nM,171000 MFI
B16,> 50 nM,90100 MFI
B17,11.6 nM,150000 MFI
